Experiment [1] deals with T1, human C1s deletion mutant 2 (NHC) (human, UniProt P09871 16-437).
T1 construct: C-terminal 6xHis tag; also called HuC1s(NHC); huC1sNHC
T1 sequence: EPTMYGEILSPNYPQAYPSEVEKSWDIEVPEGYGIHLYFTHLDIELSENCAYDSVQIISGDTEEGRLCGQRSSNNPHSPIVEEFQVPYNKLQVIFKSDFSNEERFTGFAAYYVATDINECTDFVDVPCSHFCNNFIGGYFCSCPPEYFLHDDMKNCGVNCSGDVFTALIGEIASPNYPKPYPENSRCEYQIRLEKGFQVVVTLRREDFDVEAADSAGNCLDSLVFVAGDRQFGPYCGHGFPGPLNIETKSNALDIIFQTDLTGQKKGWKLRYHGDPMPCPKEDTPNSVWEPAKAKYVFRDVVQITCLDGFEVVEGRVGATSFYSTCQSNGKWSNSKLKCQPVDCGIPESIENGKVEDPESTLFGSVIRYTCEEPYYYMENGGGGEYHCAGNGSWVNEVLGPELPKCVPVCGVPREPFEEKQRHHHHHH
The experiment is described as follows: ELISA, plate coated with 200 ng/well HuC1s(NHC), OD450nm. As for the experimental part: (§1) ELISA was carried out by first coating 96-well plates with 200 ng/well of full-length or truncated C1s proteins overnight. The next morning, plates were blocked with SuperBlock T20 blocking buffer (Thermo Scientific 37536) for 1 h with gentle shaking. Then, various concentrations of anti-C1s antibodies diluted in SuperBlock T20 blocking buffer were added to the plates and incubated for 1 h with gentle shaking. Mouse IgG (Sigma-Aldrich 15381) and human IgG1 (BioXCell BP0297) were used as negative controls. The plates were washed before incubating with HRP conjugated secondary antibodies diluted in SuperBlock T20 blocking buffer (goat anti-mouse IgG (H+L) cross-adsorbed secondary antibody HRP (Invitrogen G-21040) or goat anti-human IgG antibody, HRP conjugate (Millipore AP309P)) for 1 h with gentle shaking. At last, the plates were washed and color developed with ELISA liquid HRP substrate (Sigma-Aldrich), followed by stopping the reaction with addition of 1M H₂SO₄ in the same volume as the ELISA liquid substrate. Bound antibody was measured by absorbance at OD₄₅₀ₙₘ.
(In general: ELISA stands for enzyme-linked immunosorbent assay.)

Experiment [2] deals with T2, human C1s deletion mutant 1 (M151) (human) (UniProt P09871).
T2 sequence: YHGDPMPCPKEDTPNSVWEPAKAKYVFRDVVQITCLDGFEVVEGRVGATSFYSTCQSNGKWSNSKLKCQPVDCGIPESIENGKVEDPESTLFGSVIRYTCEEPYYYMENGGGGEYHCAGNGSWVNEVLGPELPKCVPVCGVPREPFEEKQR
The experiment is described as follows: ELISA, plate coated with 200 ng/well HuC1s(M151), OD450nm.

The target of experiment [3] is T3, full-length human C1s (produced in house) (human, UniProt P09871 16-688).
T3 construct: Called full-length; Partly auto-cleaved at R422-I423 on blots; also called HuC1s; Hu C1s
T3 sequence: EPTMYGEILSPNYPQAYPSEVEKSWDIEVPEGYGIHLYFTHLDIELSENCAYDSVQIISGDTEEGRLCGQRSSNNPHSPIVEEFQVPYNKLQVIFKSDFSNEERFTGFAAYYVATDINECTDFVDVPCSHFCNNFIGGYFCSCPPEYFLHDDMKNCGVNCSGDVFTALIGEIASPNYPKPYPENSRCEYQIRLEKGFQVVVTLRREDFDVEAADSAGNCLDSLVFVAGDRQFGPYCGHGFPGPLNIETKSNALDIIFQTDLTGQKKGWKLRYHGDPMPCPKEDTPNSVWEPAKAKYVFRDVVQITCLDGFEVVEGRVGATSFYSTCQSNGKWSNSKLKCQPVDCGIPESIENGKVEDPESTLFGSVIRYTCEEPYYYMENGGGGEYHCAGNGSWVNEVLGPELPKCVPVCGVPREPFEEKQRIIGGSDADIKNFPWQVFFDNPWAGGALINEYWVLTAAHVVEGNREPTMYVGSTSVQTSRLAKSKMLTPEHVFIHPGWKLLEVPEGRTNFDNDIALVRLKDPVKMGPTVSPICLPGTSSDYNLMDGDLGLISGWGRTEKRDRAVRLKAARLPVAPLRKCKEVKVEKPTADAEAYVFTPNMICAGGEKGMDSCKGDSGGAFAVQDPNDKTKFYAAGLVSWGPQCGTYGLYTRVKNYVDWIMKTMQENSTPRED
Briefly: ELISA, plate coated with 200 ng/well full-length HuC1s, OD450nm. As to the method:
as §1

The target of experiment [4] is T4, full-length mouse C1s (produced in house) (mouse, UniProt Q8CG14 16-688).
T4 construct: Called full-length; also called MoC1s; moC1s
T4 sequence: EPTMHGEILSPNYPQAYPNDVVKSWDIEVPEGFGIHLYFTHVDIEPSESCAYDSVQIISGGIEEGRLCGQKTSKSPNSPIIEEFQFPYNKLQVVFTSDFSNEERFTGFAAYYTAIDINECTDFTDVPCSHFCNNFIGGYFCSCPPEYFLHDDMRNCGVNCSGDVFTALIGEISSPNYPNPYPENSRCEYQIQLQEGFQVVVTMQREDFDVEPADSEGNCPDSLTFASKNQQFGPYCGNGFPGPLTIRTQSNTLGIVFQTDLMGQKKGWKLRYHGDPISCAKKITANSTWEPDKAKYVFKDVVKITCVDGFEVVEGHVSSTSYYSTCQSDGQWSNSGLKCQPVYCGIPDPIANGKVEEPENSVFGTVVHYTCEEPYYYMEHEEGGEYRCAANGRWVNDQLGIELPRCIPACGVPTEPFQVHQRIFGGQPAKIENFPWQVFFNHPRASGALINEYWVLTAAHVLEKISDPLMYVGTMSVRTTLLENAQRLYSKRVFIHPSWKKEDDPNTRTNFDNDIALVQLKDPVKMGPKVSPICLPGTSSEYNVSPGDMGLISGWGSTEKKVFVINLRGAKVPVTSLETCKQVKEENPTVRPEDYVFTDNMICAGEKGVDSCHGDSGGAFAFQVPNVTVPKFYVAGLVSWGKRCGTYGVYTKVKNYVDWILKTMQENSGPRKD
The experiment is described as follows: ELISA, plate coated with 200 ng/well full-length MoC1s, OD450nm. As for the experimental part:
as §1

The target of experiment [5] is T5, C1s in normal human serum (NHS, CompTech NHS) (human, UniProt P09871 16-688).
T5 sequence (looked up): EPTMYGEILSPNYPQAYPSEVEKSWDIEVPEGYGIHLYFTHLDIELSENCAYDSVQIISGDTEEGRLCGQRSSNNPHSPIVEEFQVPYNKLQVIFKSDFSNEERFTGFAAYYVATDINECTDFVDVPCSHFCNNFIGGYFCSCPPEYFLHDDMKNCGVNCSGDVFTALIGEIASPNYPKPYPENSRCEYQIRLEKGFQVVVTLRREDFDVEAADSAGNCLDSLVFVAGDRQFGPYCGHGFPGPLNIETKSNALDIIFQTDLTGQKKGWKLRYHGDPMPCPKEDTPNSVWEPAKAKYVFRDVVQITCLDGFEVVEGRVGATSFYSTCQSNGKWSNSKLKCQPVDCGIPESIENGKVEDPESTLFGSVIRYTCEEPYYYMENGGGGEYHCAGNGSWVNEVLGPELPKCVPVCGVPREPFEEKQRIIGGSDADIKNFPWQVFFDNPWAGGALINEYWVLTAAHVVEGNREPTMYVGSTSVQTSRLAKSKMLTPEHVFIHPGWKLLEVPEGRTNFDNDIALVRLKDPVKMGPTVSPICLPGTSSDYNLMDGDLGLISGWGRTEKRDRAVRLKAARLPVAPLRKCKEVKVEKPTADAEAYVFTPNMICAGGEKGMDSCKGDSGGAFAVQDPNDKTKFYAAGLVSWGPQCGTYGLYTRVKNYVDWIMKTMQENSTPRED
The experiment is described as follows: cell-based or functional assay.

Experiment [6] addresses T6, C1s in normal cynomolgus monkey serum (CMS, CompTech NCYS) (cynomolgus monkey, UniProt A0A2K5VQX9 16-685).
T6 sequence: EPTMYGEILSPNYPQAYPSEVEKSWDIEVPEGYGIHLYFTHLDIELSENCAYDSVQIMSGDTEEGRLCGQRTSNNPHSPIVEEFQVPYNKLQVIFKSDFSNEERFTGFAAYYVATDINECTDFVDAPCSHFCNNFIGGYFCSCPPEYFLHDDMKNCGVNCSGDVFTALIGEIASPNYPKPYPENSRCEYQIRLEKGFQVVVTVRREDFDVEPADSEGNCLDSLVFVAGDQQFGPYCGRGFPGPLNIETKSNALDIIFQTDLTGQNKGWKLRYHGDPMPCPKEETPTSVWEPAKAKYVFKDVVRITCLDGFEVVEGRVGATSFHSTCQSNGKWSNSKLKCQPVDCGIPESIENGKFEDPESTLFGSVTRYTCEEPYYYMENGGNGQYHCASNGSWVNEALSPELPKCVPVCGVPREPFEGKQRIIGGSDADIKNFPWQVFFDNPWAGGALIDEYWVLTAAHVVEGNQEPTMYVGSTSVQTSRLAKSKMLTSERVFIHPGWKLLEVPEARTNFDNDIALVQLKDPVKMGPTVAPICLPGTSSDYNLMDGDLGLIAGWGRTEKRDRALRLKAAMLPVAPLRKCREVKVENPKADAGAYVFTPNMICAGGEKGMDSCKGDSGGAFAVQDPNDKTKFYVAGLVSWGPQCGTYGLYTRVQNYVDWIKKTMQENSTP
The experiment is described as follows: cell-based or functional assay.

B1: Anti-C1s antibody hz2-8(H1L2) (antibody, V domains shown)
VH: QVQLVQSGAEVKKPGASVKVSCKASGFNIKEYYMHWVRQAPEQGLEWMGWIDPENGDTIYAQKFQGRVTITADTSTNTAYMELSSLRSEDTAVYYCARSRLFFAYWGQGTLVTVSS
VL: DIQMTQSPKSLSASVGDRVTITCRASQDVRTALDWYQQKPGQSPKLLIYSASYRYSGVPSRFSGSGSGTDFTLTISSLQPEDFATYYCQQQYTTPYTFGQGTKLEIKR
notes: Humanized, human IgG1 / kappa
The EC50 is the midpoint of the concentration-response curve. Molecule B1 yielded a half-maximal effective concentration (EC50) in experiment [1] of 0.003 µg/mL. In experiment [2], this molecule came in with an EC50 of 0.003 µg/mL. In addition, a half-maximal response in experiment [3] (EC50) required 0.002 µg/mL. Moreover, in experiment [4], the binding result was “no binding (tested: 1000 ng/ml (Log 3))”. Moreover, in experiment [5], the “IC50, inhibition of IgM-induced C4 deposition from NHS” value was 0.2 µg/mL and the “IC50, inhibition of human complement-mediated lysis of antibody-sensitized sheep erythrocytes (EA)” value came out at 0.2 µg/mL. In experiment [6], the “IC50, inhibition of IgM-induced C4 deposition from CMS” value is 0.2 µg/mL and the “IC50, inhibition of cynomolgus monkey complement-mediated lysis of EA” value amounted to 0.1 µg/mL.
